Test results taken from patent US20230357348A1 (AstraZeneca / MedImmune, published 2023).
Starred links: 1 amine or outer side, 2 acyl side, 3 side chain; linkers in the order of their positions; H or OH if unused. Non-standard residues stand in square brackets, D forms with d. Groups on a side chain read outwards from the residue. No end group written: not given here. *: point of attachment. C20 diacid = O=C(O)CCCCCCCCCCCCCCCCCCC(=O)*; C18 diacid = O=C(O)CCCCCCCCCCCCCCCCC(=O)*; γGlu = O=C(O)[C@H](CCC(=O)[*:2])N[*:1]; αMeF = C[C@](N)(Cc1ccccc1)C(=O)O; AEEA = NCCOCCOCC(=O)O; Aib = CC(C)(N)C(=O)O

B1: Peptide 497 (peptide)
peptide: H[Aib]QGTFTSDVSK[αMeF]LDTK([AEEA-AEEA-γGlu-C18 diacid])RAQDFVRWLLR[Aib]A-OH
modifications: N-terminus assumed
SMILES: CC(C)C[C@H](NC(=O)[C@H](Cc1c[nH]c2ccccc12)NC(=O)[C@H](CCCNC(=N)N)NC(=O)[C@@H](NC(=O)[C@H](Cc1ccccc1)NC(=O)[C@H](CC(=O)O)NC(=O)[C@H](CCC(N)=O)NC(=O)[C@H](C)NC(=O)[C@H](CCCNC(=N)N)NC(=O)[C@H](CCCCNC(=O)COCCOCCNC(=O)COCCOCCNC(=O)CC[C@H](NC(=O)CCCCCCCCCCCCCCCCC(=O)O)C(=O)O)NC(=O)[C@@H](NC(=O)[C@H](CC(=O)O)NC(=O)[C@H](CC(C)C)NC(=O)[C@](C)(Cc1ccccc1)NC(=O)[C@H](CCCCN)NC(=O)[C@H](CO)NC(=O)[C@@H](NC(=O)[C@H](CC(=O)O)NC(=O)[C@H](CO)NC(=O)[C@@H](NC(=O)[C@H](Cc1ccccc1)NC(=O)[C@@H](NC(=O)CNC(=O)[C@H](CCC(N)=O)NC(=O)C(C)(C)NC(=O)[C@@H](N)Cc1c[nH]cn1)[C@@H](C)O)[C@@H](C)O)C(C)C)[C@@H](C)O)C(C)C)C(=O)N[C@@H](CC(C)C)C(=O)N[C@@H](CCCNC(=N)N)C(=O)NC(C)(C)C(=O)N[C@@H](C)C(=O)O
B2: Peptide 501 (peptide)
peptide: H[Aib]QGTFTSDVSK[αMeF]LDTK([AEEA-AEEA-γGlu-C18 diacid])RARDFVQWLLR[Aib]A-OH
modifications: N-terminus assumed
SMILES: CC(C)C[C@H](NC(=O)[C@H](Cc1c[nH]c2ccccc12)NC(=O)[C@H](CCC(N)=O)NC(=O)[C@@H](NC(=O)[C@H](Cc1ccccc1)NC(=O)[C@H](CC(=O)O)NC(=O)[C@H](CCCNC(=N)N)NC(=O)[C@H](C)NC(=O)[C@H](CCCNC(=N)N)NC(=O)[C@H](CCCCNC(=O)COCCOCCNC(=O)COCCOCCNC(=O)CC[C@H](NC(=O)CCCCCCCCCCCCCCCCC(=O)O)C(=O)O)NC(=O)[C@@H](NC(=O)[C@H](CC(=O)O)NC(=O)[C@H](CC(C)C)NC(=O)[C@](C)(Cc1ccccc1)NC(=O)[C@H](CCCCN)NC(=O)[C@H](CO)NC(=O)[C@@H](NC(=O)[C@H](CC(=O)O)NC(=O)[C@H](CO)NC(=O)[C@@H](NC(=O)[C@H](Cc1ccccc1)NC(=O)[C@@H](NC(=O)CNC(=O)[C@H](CCC(N)=O)NC(=O)C(C)(C)NC(=O)[C@@H](N)Cc1c[nH]cn1)[C@@H](C)O)[C@@H](C)O)C(C)C)[C@@H](C)O)C(C)C)C(=O)N[C@@H](CC(C)C)C(=O)N[C@@H](CCCNC(=N)N)C(=O)NC(C)(C)C(=O)N[C@@H](C)C(=O)O
B3: Peptide 500 (peptide)
peptide: H[Aib]QGTFTSDVSK[αMeF]LDTK([AEEA-AEEA-γGlu-C20 diacid])RAQDFVQWLLR[Aib]A-OH
modifications: N-terminus assumed
SMILES: CC(C)C[C@H](NC(=O)[C@H](Cc1c[nH]c2ccccc12)NC(=O)[C@H](CCC(N)=O)NC(=O)[C@@H](NC(=O)[C@H](Cc1ccccc1)NC(=O)[C@H](CC(=O)O)NC(=O)[C@H](CCC(N)=O)NC(=O)[C@H](C)NC(=O)[C@H](CCCNC(=N)N)NC(=O)[C@H](CCCCNC(=O)COCCOCCNC(=O)COCCOCCNC(=O)CC[C@H](NC(=O)CCCCCCCCCCCCCCCCCCC(=O)O)C(=O)O)NC(=O)[C@@H](NC(=O)[C@H](CC(=O)O)NC(=O)[C@H](CC(C)C)NC(=O)[C@](C)(Cc1ccccc1)NC(=O)[C@H](CCCCN)NC(=O)[C@H](CO)NC(=O)[C@@H](NC(=O)[C@H](CC(=O)O)NC(=O)[C@H](CO)NC(=O)[C@@H](NC(=O)[C@H](Cc1ccccc1)NC(=O)[C@@H](NC(=O)CNC(=O)[C@H](CCC(N)=O)NC(=O)C(C)(C)NC(=O)[C@@H](N)Cc1c[nH]cn1)[C@@H](C)O)[C@@H](C)O)C(C)C)[C@@H](C)O)C(C)C)C(=O)N[C@@H](CC(C)C)C(=O)N[C@@H](CCCNC(=N)N)C(=O)NC(C)(C)C(=O)N[C@@H](C)C(=O)O
B4: Peptide 494 (peptide)
peptide: H[Aib]QGTFTSDVSK[αMeF]LDTK([AEEA-AEEA-γGlu-C20 diacid])RAQDFVRWLLR[Aib]K-OH
B5: Peptide 495 (peptide)
peptide: H[Aib]QGTFTSDVSK[αMeF]LDTK([AEEA-AEEA-γGlu-C18 diacid])RAQDFVRWLLR[Aib]K-NH2
modifications: N-terminus assumed
SMILES: CC(C)C[C@H](NC(=O)[C@H](Cc1c[nH]c2ccccc12)NC(=O)[C@H](CCCNC(=N)N)NC(=O)[C@@H](NC(=O)[C@H](Cc1ccccc1)NC(=O)[C@H](CC(=O)O)NC(=O)[C@H](CCC(N)=O)NC(=O)[C@H](C)NC(=O)[C@H](CCCNC(=N)N)NC(=O)[C@H](CCCCNC(=O)COCCOCCNC(=O)COCCOCCNC(=O)CC[C@H](NC(=O)CCCCCCCCCCCCCCCCC(=O)O)C(=O)O)NC(=O)[C@@H](NC(=O)[C@H](CC(=O)O)NC(=O)[C@H](CC(C)C)NC(=O)[C@](C)(Cc1ccccc1)NC(=O)[C@H](CCCCN)NC(=O)[C@H](CO)NC(=O)[C@@H](NC(=O)[C@H](CC(=O)O)NC(=O)[C@H](CO)NC(=O)[C@@H](NC(=O)[C@H](Cc1ccccc1)NC(=O)[C@@H](NC(=O)CNC(=O)[C@H](CCC(N)=O)NC(=O)C(C)(C)NC(=O)[C@@H](N)Cc1c[nH]cn1)[C@@H](C)O)[C@@H](C)O)C(C)C)[C@@H](C)O)C(C)C)C(=O)N[C@@H](CC(C)C)C(=O)N[C@@H](CCCNC(=N)N)C(=O)NC(C)(C)C(=O)N[C@@H](CCCCN)C(N)=O
B6: Peptide 496 (peptide)
peptide: H[Aib]QGTFTSDVSK[αMeF]LDTK([AEEA-AEEA-γGlu-C20 diacid])RAQDFVRWLLR[Aib]K-NH2
modifications: N-terminus assumed
SMILES: CC(C)C[C@H](NC(=O)[C@H](Cc1c[nH]c2ccccc12)NC(=O)[C@H](CCCNC(=N)N)NC(=O)[C@@H](NC(=O)[C@H](Cc1ccccc1)NC(=O)[C@H](CC(=O)O)NC(=O)[C@H](CCC(N)=O)NC(=O)[C@H](C)NC(=O)[C@H](CCCNC(=N)N)NC(=O)[C@H](CCCCNC(=O)COCCOCCNC(=O)COCCOCCNC(=O)CC[C@H](NC(=O)CCCCCCCCCCCCCCCCCCC(=O)O)C(=O)O)NC(=O)[C@@H](NC(=O)[C@H](CC(=O)O)NC(=O)[C@H](CC(C)C)NC(=O)[C@](C)(Cc1ccccc1)NC(=O)[C@H](CCCCN)NC(=O)[C@H](CO)NC(=O)[C@@H](NC(=O)[C@H](CC(=O)O)NC(=O)[C@H](CO)NC(=O)[C@@H](NC(=O)[C@H](Cc1ccccc1)NC(=O)[C@@H](NC(=O)CNC(=O)[C@H](CCC(N)=O)NC(=O)C(C)(C)NC(=O)[C@@H](N)Cc1c[nH]cn1)[C@@H](C)O)[C@@H](C)O)C(C)C)[C@@H](C)O)C(C)C)C(=O)N[C@@H](CC(C)C)C(=O)N[C@@H](CCCNC(=N)N)C(=O)NC(C)(C)C(=O)N[C@@H](CCCCN)C(N)=O
B7: Peptide 499 (peptide)
peptide: H[Aib]QGTFTSDVSK[αMeF]LDTK([AEEA-AEEA-γGlu-C18 diacid])RAQDFVQWLLR[Aib]A-OH
modifications: N-terminus assumed
SMILES: CC(C)C[C@H](NC(=O)[C@H](Cc1c[nH]c2ccccc12)NC(=O)[C@H](CCC(N)=O)NC(=O)[C@@H](NC(=O)[C@H](Cc1ccccc1)NC(=O)[C@H](CC(=O)O)NC(=O)[C@H](CCC(N)=O)NC(=O)[C@H](C)NC(=O)[C@H](CCCNC(=N)N)NC(=O)[C@H](CCCCNC(=O)COCCOCCNC(=O)COCCOCCNC(=O)CC[C@H](NC(=O)CCCCCCCCCCCCCCCCC(=O)O)C(=O)O)NC(=O)[C@@H](NC(=O)[C@H](CC(=O)O)NC(=O)[C@H](CC(C)C)NC(=O)[C@](C)(Cc1ccccc1)NC(=O)[C@H](CCCCN)NC(=O)[C@H](CO)NC(=O)[C@@H](NC(=O)[C@H](CC(=O)O)NC(=O)[C@H](CO)NC(=O)[C@@H](NC(=O)[C@H](Cc1ccccc1)NC(=O)[C@@H](NC(=O)CNC(=O)[C@H](CCC(N)=O)NC(=O)C(C)(C)NC(=O)[C@@H](N)Cc1c[nH]cn1)[C@@H](C)O)[C@@H](C)O)C(C)C)[C@@H](C)O)C(C)C)C(=O)N[C@@H](CC(C)C)C(=O)N[C@@H](CCCNC(=N)N)C(=O)NC(C)(C)C(=O)N[C@@H](C)C(=O)O
B8: Peptide 498 (peptide)
peptide: H[Aib]QGTFTSDVSK[αMeF]LDTK([AEEA-AEEA-γGlu-C20 diacid])RAQDFVRWLLR[Aib]A-OH
modifications: N-terminus assumed
SMILES: CC(C)C[C@H](NC(=O)[C@H](Cc1c[nH]c2ccccc12)NC(=O)[C@H](CCCNC(=N)N)NC(=O)[C@@H](NC(=O)[C@H](Cc1ccccc1)NC(=O)[C@H](CC(=O)O)NC(=O)[C@H](CCC(N)=O)NC(=O)[C@H](C)NC(=O)[C@H](CCCNC(=N)N)NC(=O)[C@H](CCCCNC(=O)COCCOCCNC(=O)COCCOCCNC(=O)CC[C@H](NC(=O)CCCCCCCCCCCCCCCCCCC(=O)O)C(=O)O)NC(=O)[C@@H](NC(=O)[C@H](CC(=O)O)NC(=O)[C@H](CC(C)C)NC(=O)[C@](C)(Cc1ccccc1)NC(=O)[C@H](CCCCN)NC(=O)[C@H](CO)NC(=O)[C@@H](NC(=O)[C@H](CC(=O)O)NC(=O)[C@H](CO)NC(=O)[C@@H](NC(=O)[C@H](Cc1ccccc1)NC(=O)[C@@H](NC(=O)CNC(=O)[C@H](CCC(N)=O)NC(=O)C(C)(C)NC(=O)[C@@H](N)Cc1c[nH]cn1)[C@@H](C)O)[C@@H](C)O)C(C)C)[C@@H](C)O)C(C)C)C(=O)N[C@@H](CC(C)C)C(=O)N[C@@H](CCCNC(=N)N)C(=O)NC(C)(C)C(=O)N[C@@H](C)C(=O)O

How the values were obtained:
[1] = target: human GLP-1 receptor (hGLP-1R) (human, UniProt P43220 24-463); assay: cell-based or functional assay
[2] = target: human glucagon receptor (hGCGR) (human, UniProt P47871 26-477); assay: cell-based or functional assay
Sequence of human glucagon receptor (hGCGR) (P47871 26-477): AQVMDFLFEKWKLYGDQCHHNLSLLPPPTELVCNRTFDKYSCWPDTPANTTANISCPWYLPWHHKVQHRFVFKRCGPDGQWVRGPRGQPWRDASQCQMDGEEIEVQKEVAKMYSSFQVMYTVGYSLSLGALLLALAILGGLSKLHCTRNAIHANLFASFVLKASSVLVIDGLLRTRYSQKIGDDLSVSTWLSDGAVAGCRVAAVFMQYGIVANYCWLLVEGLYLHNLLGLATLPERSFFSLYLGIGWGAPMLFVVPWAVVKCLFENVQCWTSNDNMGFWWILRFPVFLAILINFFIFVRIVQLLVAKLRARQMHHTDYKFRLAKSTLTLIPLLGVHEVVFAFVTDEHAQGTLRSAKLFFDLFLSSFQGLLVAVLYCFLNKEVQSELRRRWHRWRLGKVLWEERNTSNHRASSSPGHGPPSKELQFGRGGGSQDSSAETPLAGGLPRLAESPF

Binder	hGLP-1R EC50 (pM) [1] [pM]	hGluc-R EC50 (pM) [2] [pM]
B1	37.4	118
B2	26.5	75.6
B3	102	101
B4	98.7	212
B5	23.2	380
B6	64.9	482
B7	40.6	78.8
B8	156	170
